± gives the standard deviation of the averaged measurements.
Tested on: ATP
Assay: switch fluorescence ratio, 500 uM ATP over buffer (Cy3 cluster intensity, sum of 5 cycles each) (fold (ratio)); higher = stronger signal-on switching upon ATP binding; sequences stand for … in TCGTCGGCAGCGTCAGATGTGTATAAGAGACAGTTTTTTTTTTTTTTTTTTTTTTTTT…TC
Details: aptamer strand: ATP DNA aptamer (quencher-CACCTGGGGGAGTATTGCGGAGGAAGG + anchor), 100 nM annealed; ATP concentration: 500 uM
Procedure, shortened: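 After annealing to 100 nM quencher-labelled ATP aptamer, Cy3-labelled switching-strand clusters on a modified Illumina MiSeq flow-cell were imaged in selection buffer. A second image followed after 15 min with 500 uM ATP at 22 °C, and five such buffer/ATP cycles were done, each separated by NaOH stripping and re-annealing. The fluorescence ratio, averaged per switch-domain sequence, is summed target-cycle over summed buffer-cycle Cy3 intensity per cluster, with clusters outside 100-1000 RFU excluded.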
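Further: ATP exposure 15 min at 22 °C before imaging.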

| Sequence | switch fluorescence ratio |
| --- | --- |
| ACTGTTTTTT | 1.02 ± 0.018 |
| ACTTAAATTA | 1.03 ± 0.036 |
| ACTTACAGAA | 1.23 ± 0.011 |
| ACTTACGGTT | 1.32 ± 0.18 |
| ACTTAGGTAA | 1.01 ± 0.024 |
| ACTTATCTAC | 1.05 ± 0.069 |
| ACTTATGATA | 1.02 ± 0.054 |
| ACTTATGGCT | 1.05 ± 0.022 |
| ACTTCTAAAC | 1.07 ± 0.044 |
| ACTTCTAATT | 1.01 ± 0.038 |
| ACTTCTTTGT | 1.1 ± 0.11 |
| ACTTGAAGTG | 0.997 ± 0.021 |
| ACTTGACGTG | 1.01 ± 0.059 |
| ACTTGATCCC | 1.02 ± 0.043 |
| ACTTGCCGTA | 0.992 ± 0.071 |
| ACTTGGATGG | 0.995 ± 0.028 |
| ACTTGGCTGT | 0.99842 ± 0.00092 |
| ACTTGGGACT | 1.04 ± 0.047 |
| ACTTGGGCAT | 0.993 ± 0.028 |
| ACTTGGGGCC | 0.971 ± 0.012 |
| ACTTGGGGGA | 0.9907 ± 0.0057 |
| ACTTGGGTAG | 0.9928 ± 0.0011 |
| ACTTGGTCGT | 1.04 ± 0.012 |

| Sequence | switch fluorescence ratio |
| --- | --- |
| ACTTGGTCTT | 0.974 ± 0.03 |
| ACTTGTAAAC | 1.01 ± 0.025 |
| ACTTGTAGGC | 1.01 ± 0.05 |
| ACTTTAATTG | 1.002 ± 0.0014 |
| ACTTTATTAG | 1.0103 ± 0.00038 |
| ACTTTGAAGT | 0.993 ± 0.024 |
| ACTTTGAATC | 0.998 ± 0.053 |
| ACTTTGCGGT | 1.078 ± 0.0015 |
| ACTTTGCGTT | 0.992 ± 0.011 |
| ACTTTGGACA | 1.038 ± 0.0052 |
| ACTTTGGCCC | 1.005 ± 1.1e-05 |
| ACTTTGGGAT | 1.023 ± 0.0029 |
| AGAAAAACAT | 1.034 ± 0.0073 |
| AGAAAAACCG | 1.05 ± 0.052 |
| AGAAAAATGC | 1.04 ± 0.088 |
| AGAAAAGAGT | 1.01 ± 0.017 |
| AGAAAAGGAA | 1 ± 0.017 |
| AGAAACAGCT | 1.04 ± 0.046 |
| AGAAAGCGAC | 1.17 ± 0.093 |
| AGAAAGGAAG | 1.01 ± 0.024 |
| AGAAAGGGCG | 0.94 ± 0.037 |
| AGAAAGTTTG | 1.01 ± 0.044 |
| AGAAATACGG | 1.21 ± 0.063 |

| Sequence | switch fluorescence ratio |
| --- | --- |
| AGAACCTGGG | 0.981 ± 0.055 |
| AGAACGGCGG | 0.972 ± 0.085 |
| AGAACTGAGA | 0.998 ± 0.077 |
| AGAACTGGCT | 0.988 ± 0.011 |
| AGAACTTTTA | 0.998 ± 0.015 |
| AGAAGAGTAA | 1.009 ± 0.0091 |
| AGAAGATTGT | 0.989 ± 0.013 |
| AGAAGCGGTT | 1.02 ± 0.025 |
| AGAAGGGCTT | 1 ± 0.026 |
| AGAAGGGGGA | 1.01 ± 0.039 |
| AGAAGGGGGG | 0.998 ± 0.022 |
| AGAAGGGGTA | 1.01 ± 0.046 |
| AGAAGGGTTG | 1 ± 0.023 |
| AGAAGTTAGG | 0.973 ± 0.013 |
| AGAAGTTGCG | 0.986 ± 0.0083 |
| AGAAGTTGGG | 0.993 ± 0.02 |
| AGAAGTTTTC | 0.973 ± 0.038 |
| AGAATCGACT | 0.997 ± 0.014 |
| AGAATCGGCG | 1.03 ± 0.0081 |
| AGAATCGTTG | 1.005 ± 0.0072 |
| AGAATGGGTG | 1.05 ± 0.036 |
| AGAATGTGGG | 0.996 ± 0.034 |
| AGAATTAAG | 0.96 ± 0.017 |

| Sequence | switch fluorescence ratio |
| --- | --- |
| AGAATTATTG | 0.9936 ± 0.0079 |
| AGAATTTATT | 1.01 ± 0.039 |
| AGAATTTTAG | 1.01 ± 0.016 |
| AGACAGCGAG | 1.015 ± 0.0021 |
| AGACAGGGCC | 0.988 ± 0.01 |
| AGACAGGGCT | 1.02 ± 0.042 |
| AGACAGGGGA | 1.02 ± 0.04 |
| AGACCAATTC | 1.095 ± 0.0037 |
| AGACCACTTG | 1.036 ± 0.0069 |
| AGACCGAGTT | 1.08 ± 0.096 |
| AGACCGCAGT | 1.137 ± 0.0071 |
| AGACCTCATA | 1.02 ± 0.021 |
| AGACGAAAAG | 1.03 ± 0.038 |
| AGACGAAAGT | 0.998 ± 0.054 |
| AGACGGCAAA | 1.03 ± 0.044 |
| AGACGGCGGG | 0.996 ± 0.012 |
| AGACGGGATG | 0.973 ± 0.084 |
| AGACTAGTCG | 0.972 ± 0.047 |
| AGACTCTTGA | 1 ± 0.0083 |
| AGACTTTCTT | 1.04 ± 0.02 |
| AGAGAAAAAG | 0.957 ± 0.042 |
| AGAGAGAAAG | 0.97 ± 0.025 |
| AGAGAGATCC | 1.02 ± 0.058 |

| Sequence | switch fluorescence ratio |
| --- | --- |
| AGAGATGGTT | 0.979 ± 0.012 |
| AGAGATTACG | 1.02 ± 0.034 |
| AGAGATTGGG | 0.965 ± 0.017 |
| AGAGCACAGG | 1.09 ± 0.018 |
| AGAGCAGCTG | 0.998 ± 0.041 |
| AGAGCAGTGT | 1.01 ± 0.014 |
| AGAGCGGGGG | 1.02 ± 0.038 |
| AGAGGAATTC | 1 ± 0.013 |
| AGAGGAATTT | 1.01 ± 0.02 |
| AGAGGAGAAT | 0.993 ± 0.0021 |
| AGAGGAGGCA | 0.9727 ± 0.0085 |
| AGAGGATATA | 0.988 ± 0.043 |
| AGAGGCCTTG | 0.969 ± 0.013 |
| AGAGGCTTAA | 1.01 ± 0.011 |
| AGAGGGCAGG | 0.995 ± 0.018 |
| AGAGGGCCAT | 0.9972 ± 0.0021 |
| AGAGGGCGGT | 1.02 ± 0.024 |
| AGAGGGCGTC | 1.04 ± 0.046 |
| AGAGGGGAAT | 1.01 ± 0.023 |
| AGAGGGGCGG | 1 ± 0.016 |
| AGAGGGGTAC | 0.992 ± 0.047 |
| AGAGGGGTCA | 1.01 ± 0.02 |
| AGAGGGTAGT | 1.01 ± 0.022 |

| Sequence | switch fluorescence ratio |
| --- | --- |
| AGAGGGTTAT | 0.985 ± 0.038 |
| AGAGGTGGAG | 0.993 ± 0.03 |
| AGAGGTTTTG | 1.01 ± 0.042 |
| AGAGTAGTTA | 0.9737 ± 0.0036 |
| AGAGTATCTA | 0.962 ± 0.048 |
| AGAGTCGCGG | 1 ± 0.015 |
| AGAGTGACGT | 0.9848 ± 0.0018 |
| AGAGTGGAAG | 0.977 ± 0.051 |
| AGAGTGGGCC | 0.956 ± 0.07 |
| AGAGTGGTGT | 1 ± 0.024 |
| AGAGTTAAAA | 1.04 ± 0.0077 |
| AGAGTTCATA | 1.04 ± 0.027 |
| AGAGTTCTCG | 0.978 ± 0.012 |
| AGAGTTGGTC | 1 ± 0.068 |
| AGATAACAGG | 1.01 ± 0.034 |
| AGATAACTCA | 1.02 ± 0.048 |
| AGATAACTCT | 1.012 ± 0.0083 |
| AGATAGGAGT | 1.02 ± 0.019 |
| AGATAGTCTC | 0.991 ± 0.024 |
| AGATATAGGG | 0.937 ± 0.012 |
| AGATATCTA | 0.985 ± 0.023 |
| AGATATGCGT | 1.025 ± 0.0013 |
| AGATATTGGC | 1.03 ± 0.11 |

| Sequence | switch fluorescence ratio |
| --- | --- |
| AGATCGTTGT | 0.978 ± 0.028 |
| AGATCTTCGG | 1.001 ± 0.0076 |
| AGATGAATGT | 0.987 ± 0.015 |
| AGATGAGGAA | 1.004 ± 0.01 |
| AGATGAGGGA | 1.02 ± 0.032 |
| AGATGATTGG | 0.985 ± 0.023 |
| AGATGCAGCT | 0.976 ± 0.033 |
| AGATGCCAGG | 1.1 ± 0.031 |
| AGATGCTTAT | 0.979 ± 0.019 |
| AGATGGATTT | 0.963 ± 0.0091 |
| AGATGGCGCT | 0.967 ± 0.029 |
| AGATGGGCAG | 0.996 ± 0.012 |
| AGATGGGTAC | 1.03 ± 0.029 |
| AGATGGTCAA | 0.967 ± 0.02 |
| AGATGTATAG | 1.034 ± 0.009 |
| AGATGTCCTT | 1.02 ± 0.037 |
| AGATGTCTGG | 0.9897 ± 0.0063 |
| AGATGTGGTT | 0.9922 ± 0.0041 |
| AGATGTTGAA | 0.979 ± 0.023 |
